Literature values as cited in publication doi:10.1101/2024.11.09.622800.
Read-outs that look alike come from different tables or passages of the source.

Columns and labels:
Asp85 = Asp85 (UniProt position 98, WARYADWLFTT)
Asp75 = Asp75 (UniProt position 122, TWREADINYTS)
Cys48 = Cys48 (UniProt position 48, SLKASCLYGQL)
Glu325 = Glu325 (UniProt position 325, TLHMFEVPFLL)
Lys132 = Lys132 (UniProt position 214, KSEAQKKKEKL); assay: stability
Asp118 = Asp118 (UniProt position 200, YVYKPDNTHEQ); assay: stability
Asp41 = Asp41 (UniProt position 123, LLLVDDPETKH); assay: stability
Asp26 = Asp26 (UniProt position 26, KLVVVDFSATW)
Glu172 = Glu172 (UniProt position 200, QVMATEGYQSS)

Bacteriorhodopsin (Halobacterium salinarum (not stated in the article))
pKa (Asp85; conformational state associated by the authors with PDB 1IW6): 7.2
pKa (Asp85; conformational state associated by the authors with PDB 1UCQ (retinal forms a salt bridge with Asp85)): 2.6

Barnase (Bacillus amyloliquefaciens (not stated in the article))
pKa (Asp75): 3.1

Glutathione S-transferase (PDB 5X79)
pKa (Cys48): 3.7

Lactose permease LacY (Escherichia coli (not stated in the article))
pKa (Glu325): 10.5

Staphylococcal nuclease (SNase) A132K variant (Staphylococcus aureus; A132K)
pKa (Lys132): 10.4

Staphylococcal nuclease (SNase) N118D variant (Staphylococcus aureus; N118D)
pKa (Asp118): 7.0

Staphylococcal nuclease (SNase) T41D variant (Staphylococcus aureus; T41D)
pKa (Asp41): ∼4

Thioredoxin (Homo sapiens)
pKa (Asp26; oxidized): 8.1
pKa (Asp26; reduced): 9.9

Xylanase (endo-1,4-beta-xylanase), wild type (Bacillus circulans (not stated in the article))
pKa (Glu172): 6.7

Xylanase, mutant with Glu78 covalently linked to substrate (PDB 3VZO) (Bacillus circulans (not stated in the article); not stated (the article says only that 'another nearby residue is mutated'))
pKa (Glu172; Glu78 covalently linked to substrate (covalent intermediate), nearby residue mutated): 2.8
